From patent US20180099041A1

How the values were obtained:
[1] = target: gp160 clone 108051_005 Q655R (HIV-1)
[2] = target: gp160 clone 108069_005 Q655R (HIV-1)

| Substance | IC50 (neutralization of pseudovirus infection) [1] [µg/mL] | IC50 (neutralization of pseudovirus infection) [2] [µg/mL] | IC50 (neutralization of pseudovirus infection) (108060_024 R655Q (HIV-1)) [µg/mL] | IC50 (neutralization of pseudovirus infection) (108060_022 Q655R (HIV-1)) [µg/mL] |
| --- | --- | --- | --- | --- |
| CD4-IgG (from UniProt P01730) (Fc fusion) | 5.21 | 1.08 | > 20 | 0.161 |
| broadly neutralizing monoclonal antibody 2F5 | 0.343 | 0.052 | 3.43 | 0.093 |
| broadly neutralizing monoclonal antibody 4E10 | 1.31 | 0.044 | 6.55 | 0.156 |
| broadly neutralizing, CD4 blocking monoclonal antibody b12 | > 20 | > 20 | > 20 | > 20 |
| enfuvirtide (peptide) | 0.036 | 0.011 | 0.13 | 0.004 |
| monoclonal antibody 2G12 | > 20 | > 20 | > 20 | > 20 |
